What all share (test): FACS, peptide-pulsed T2 cells
On the technique in general: In flow cytometry, cells or beads pass a laser one at a time.

Test [1] concerns the target ESO157 A8 peptide (…)/HLA-A*02:01 complex on T2 cells (human).
In test [2] the target is ESO157 A7 peptide (…)/HLA-A*02:01 complex on T2 cells (human).
For test [3], the target named is HLA-A*02:01 on T2 cells without peptide loading (human).
Test [4] concerns the target ESO157 A1 peptide (…)/HLA-A*02:01 complex on T2 cells (human).
For test [5], the target named is ESO157 wild type peptide (…)/HLA-A*02:01 complex on cells (human).
In test [6] the target is ESO157 A4 peptide (…)/HLA-A*02:01 complex on T2 cells (human).
Test [7] addresses ESO157 A5 peptide (…)/HLA-A*02:01 complex on T2 cells (human).
For test [8], the target named is ESO157 A3 peptide (…)/HLA-A*02:01 complex on T2 cells (human).
The target of test [9] is ESO157 A6 peptide (…)/HLA-A*02:01 complex on T2 cells (human).

As to antibody BB7.2, the MFI turned out to be 75000 in test [1]; 72900 in test [2]; 53100 in test [3]; 67000 in test [4]; 76000 in [5]; 60300 in [6]. For the same substance, the values for the MFI in [7], in test [8] and in test [9] were 59000, 66100 and 55800, respectively.

Take KO7 helper phage: the MFI in test [1] is 94; in test [2], 84; in test [3] it was 97; in test [4], 92; in test [5], 136; in [6], 97. Also, the figures for the MFI in [7], in [8] and in test [9] were 101, 100 and 91, respectively.

The values above are taken from US20190382504A1.
